Data published in publication PMC6949223.

Columns and labels:
[1] = anti-HA immunofluorescence, MDA-MB-231 and BT-549; settings: glycan lost; control: SGK196-WT
[2] = protein stability in MDA-MB-231 and BT-549 (Fig. S2C); settings: glycan lost; control: SGK196-WT
[3] = Matrigel Transwell invasion, MDA-MB-231 and BT-549 rescue lines; settings: glycan lost; control: SGK196-WT re-expressed in shSGK196 cells
[4] = Transwell migration, MDA-MB-231 and BT-549 rescue lines; settings: glycan lost; control: SGK196-WT re-expressed in shSGK196 cells

B1: SGK196: SGK196-4NQ (protein)
parent chain: MEKQPQNSRRGLAPREVPPAVGLLLIMALMNTLLYLCLDHFFIAPRQSTVDPTHCPYGHFRIGQMKNCSPWLSCEELRTEVRQLKRVGEGAVKRVFLSEWKEHKVALSQLTSLEMKDDFLHGLQMLKSLQGTHVVTLLGYCEDDNTMLTEYHPLGSLSNLEETLNLSKYQNVNTWQHRLELAMDYVSIINYLHHSPVGTRVMCDSNDLPKTLSQYLLTSNFSILANDLDALPLVNHSSGMLVKCGHRELHGDFVAPEQLWPYGEDVPFHDDLMPSYDEKIDIWKIPDISSFLLGHIEGSDMVRFHLFDIHKACKSQTPSERPTAQDVLETYQKVLDTLRDAMMSQAREML
Q: With B1 as the protein, how does the localisation_or_trafficking [1] read?
A: no change

Q: And the degradation_or_half_life [2]?
A: no change

Q: And the “other: suppression of cell invasion” value [3]?
A: decreases

Q: What about the “other: suppression of cell migration” value [4] of the same protein?
A: decreases
